# According to paper PMC10303064, “Sulfated Lactosyl Archaeol Archaeosome-Adjuvanted Vaccine Formulations Targeting Rabbit Hemorrhagic Disease Virus Are Immunogenic and Efficacious” (Vaccines, 2023):
# B1: RHDV2 VP60 capsid protein (natural protein)
# chain: EGKARAAPQGETAGTATTASVPGTTTDGMDPGVVATTSVVTTENASTSIATAGIGGPPQQVDQQETWRTNFYYNDVFTWSVADAPGNILYTVQHSPQNNPFTAVLSQMYAGWAGGMQFRFIVAGSGVFGGRLVAAVIPPGIEIGPGLEVRQFPHVVIDARSLEPVTITMPDLRPNMYHPTGNPGLVPTLVLSVYNNLINPFGGSTSAIQVTVETRPSEDFEFVMIRAPSSKTVDSISPADLLTTPVLTGVGTDNRWNGEIVGLQPVPGGFSTCNRHWNLNGSTFGWSSPRFAAIDHDGGNASFPGSSSSNVLELWYASAGSATDNPISQIAPDGFPDMSFVPFSGSTIPTAGWVGFGGIWNSNNGAPFVTTMQAYELGFATGAPSNPQPTTTTSGAQIVAKSIYGVANGINQTTAGLFVMASGVISTPNSSAITYTPQPNRIVNAPGTPAAAPIGKNTPIMFASVVRRTGDINAEAGSTNGTQYGAGSQPLPVTVGLSLNNYSSALMPGQFFVWQLNFASGFMELGLSVDGYFYAGTGALATLIDLSELVDIRPVGPRPSTSTLVYNLGGTTNGFSYV
# notes: VP60 capsid protein of rabbit hemorrhagic disease virus 2 (RHDV2); the tag was removed after purification; After TEV cleavage a single G of the ENLYFQG site probably stays in front of E2 (surmised); Self-assembles into virus-like particles of ~30 nm; also called RHDV2 VLP; RHDV2 capsid protein; source: Baculovirus expression system (GenScript), purified, tag removed; not shown: His6, N-terminal, …
# Target: the molecule itself
# Experiment: negative-stain transmission electron microscopy; purified RHDV2 VP60 protein alone adsorbed on glow-discharged formvar/carbon copper grids, stained with 1% uranyl acetate, imaged at 300 keV
protein,measurement,value
B1,binding result,binds
